Experimental data as given in patent US20110165081A1.

Key:
[1] = target: prostate specific membrane antigen (PSMA), full-length (human) (UniProt Q04609); test: radiolabelled mAb bound to PSMA-3T3 cells (bracket: 3T3 control)
[2] = target: prostate specific membrane antigen (PSMA), full-length (human) (UniProt Q04609); test: radiolabelled mAb bound to PSMA-expressing cells, average
[3] = target: prostate specific membrane antigen (PSMA), full-length (human) (UniProt Q04609); test: radiolabelled mAb bound to PSMA-3T3 cells
[4] = target: prostate specific membrane antigen (PSMA), full-length (human) (UniProt Q04609); test: cell-based or functional assay

Chain of prostate specific membrane antigen (PSMA), full-length (human) (Q04609 whole entry): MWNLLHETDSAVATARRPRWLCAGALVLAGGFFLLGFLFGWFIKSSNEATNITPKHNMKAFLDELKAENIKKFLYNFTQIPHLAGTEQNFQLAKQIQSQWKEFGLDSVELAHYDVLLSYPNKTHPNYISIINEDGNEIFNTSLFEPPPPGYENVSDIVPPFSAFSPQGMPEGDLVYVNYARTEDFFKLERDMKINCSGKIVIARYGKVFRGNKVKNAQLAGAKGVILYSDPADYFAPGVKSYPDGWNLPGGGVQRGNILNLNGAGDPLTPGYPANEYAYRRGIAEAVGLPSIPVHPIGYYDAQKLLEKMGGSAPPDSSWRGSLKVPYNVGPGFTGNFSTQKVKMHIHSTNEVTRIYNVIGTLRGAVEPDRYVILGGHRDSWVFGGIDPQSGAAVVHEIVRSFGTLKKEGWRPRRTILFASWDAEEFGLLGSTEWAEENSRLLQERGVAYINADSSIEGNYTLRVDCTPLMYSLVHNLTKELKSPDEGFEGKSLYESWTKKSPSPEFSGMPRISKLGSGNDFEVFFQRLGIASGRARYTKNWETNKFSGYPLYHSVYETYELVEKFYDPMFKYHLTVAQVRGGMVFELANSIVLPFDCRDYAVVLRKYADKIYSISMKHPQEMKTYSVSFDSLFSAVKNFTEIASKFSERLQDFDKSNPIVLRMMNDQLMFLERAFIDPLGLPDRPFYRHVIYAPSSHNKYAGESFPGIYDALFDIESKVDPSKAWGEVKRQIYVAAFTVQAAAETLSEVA

Substance | Immunoreactivity (%) [1] [%] | Immunoreactivity (%), Average [2] [%] | Immunoreactivity (%) [3] [%] | LD50, immunotoxin cytotoxicity (Mab-Zap saporin secondary) on C4-2 cells [4] [pM] | LD50, immunotoxin cytotoxicity (Mab-Zap saporin secondary) on PSMA-3T3 cells [4] [pM]
^111In radiolabeled CHX-A″-DTPA antibody mJ591 | 54.9 | 56.7 | 58.5 | – | –
mAb J591 (ATCC #HB-12126) (antibody) | – | – | – | 88.2 | 89
